Test results published in PMC8808176 (The Journal of Biological Chemistry, 2021).

Target: the molecule itself
Assay: cryo-EM structure

B1: full-length mouse TRPML2 (mmTRPML2) with N-terminal maltose-binding protein (natural protein, UniProt Q8K595-1 1-566, looked up)
chain: MPGDEETLDLPAWNRVPDLTWGPHHRSAMASLDSEVREECLREDLKFYFMSPCEKYRARRQIPWKLGLQILKIVMVTTQLVRFGLSNQLVVAFKEDNTVAFKHLFLKGFSGVDEDDYSCSIYTQENTYESIFFAIKQYRHLKNISLATLGYGESEDNRTGLKVCKQHYKTGAMFSSNETLNIDSDIETDCIHLDLQVLTTEPEDWAQTSFFRLDFYRLVQVDISFALKGIDLQAVHSREIPDCYLFQNTITFDNTAHSGKIKIYLNSEANIEECKNMNISGSTQRSTHYLLVFDVFVIMICLASLILCTRSIVLALRLRKRFLNFFLEKYKQRVCGADQWEFVNGWYVLVTISDLMTIIGSILKMEIKAKKLTNYDVCSILLGTSTLFVWVGVIRYLGYFQTYNVLILTMQASLPKVLRFCACAGMIYLGYTFCGWIVLGPYHEKFENLNIVAECLFSLVNGDDMFATFAQIQQKSILVWLFSRLYLYSFISLFIYMVLSLFIALITDSYHTIKKYQQHGFPETDLQKFLKESGSKDGYQKQPSALLSCLCCLRRRRSNDHLILID
For B1, the “stoichiometry N” value was 4.
